One may read the Kd as the equilibrium constant for the complex coming apart. By koff is commonly meant the first-order rate constant of dissociation. Usually kon stands for the rate constant with which the complex forms. One may read the EC50 as the concentration that produces a half-maximal response. A low value points to a more potent agent.

The labels stand for the following.
B1: 131I-labeled untagged VHH A2 (VHH)
VHH: DVQLVESGGGLVQAGGSLRLSCAADEMKFSNYDLAWYRRAPGKQRELAAIITSGGSTNYPDSVKGRFTISRDNAKNTVYLEMNSLKPEDTAVYYCNALRPWPQFSDYWGQGTQVTVSS
modifications: [131I]SGMIB conjugated to lysine side-chain amine groups
B2: untagged E90Q variant of VHH A2 (VHH)
VHH: DVQLVESGGGLVQAGGSLRLSCAADEMKFSNYDLAWYRRAPGKQRELAAIITSGGSTNYPDSVKGRFTISRDNAKNTVYLQMNSLKPEDTAVYYCNALRPWPQFSDYWGQGTQVTVSS
notes: also called A2-E90Q
B3: untagged K29R-E90Q variant of VHH A2 (VHH)
VHH: DVQLVESGGGLVQAGGSLRLSCAADEMRFSNYDLAWYRRAPGKQRELAAIITSGGSTNYPDSVKGRFTISRDNAKNTVYLQMNSLKPEDTAVYYCNALRPWPQFSDYWGQGTQVTVSS
notes: also called A2-K29R-E90Q
B4: untagged M28A-E90Q variant of VHH A2 (VHH)
VHH: DVQLVESGGGLVQAGGSLRLSCAADEAKFSNYDLAWYRRAPGKQRELAAIITSGGSTNYPDSVKGRFTISRDNAKNTVYLQMNSLKPEDTAVYYCNALRPWPQFSDYWGQGTQVTVSS
notes: also called A2-M28A-E90Q
B5: untagged K29Q-E90Q variant of VHH A2 (VHH)
VHH: DVQLVESGGGLVQAGGSLRLSCAADEMQFSNYDLAWYRRAPGKQRELAAIITSGGSTNYPDSVKGRFTISRDNAKNTVYLQMNSLKPEDTAVYYCNALRPWPQFSDYWGQGTQVTVSS
notes: also called A2-K29Q-E90Q
B6: untagged M28T-E90Q variant of VHH A2 (VHH)
VHH: DVQLVESGGGLVQAGGSLRLSCAADETKFSNYDLAWYRRAPGKQRELAAIITSGGSTNYPDSVKGRFTISRDNAKNTVYLQMNSLKPEDTAVYYCNALRPWPQFSDYWGQGTQVTVSS
notes: also called A2-M28T-E90Q; A2-M28TE90Q
B7: untagged N64E variant of VHH A1 (VHH)
VHH: DVQLVESGGGLVQPGGSLRLSCAASESIFSRNHMSWYRQAPGKQRELAAIITSDGETNYPDSVKGRFTISRDNAKNTVYLQMNSLKPEDTAVYYCNTFGRSVAGFYDYWGQGTQVTVSS
notes: also called A1-N64E
B8: untagged N64S variant of VHH A1 (VHH)
VHH: DVQLVESGGGLVQPGGSLRLSCAASESIFSRNHMSWYRQAPGKQRELAAIITSDGSTNYPDSVKGRFTISRDNAKNTVYLQMNSLKPEDTAVYYCNTFGRSVAGFYDYWGQGTQVTVSS
notes: also called A1-N64S
B9: untagged N64Q variant of VHH A1 (VHH)
VHH: DVQLVESGGGLVQPGGSLRLSCAASESIFSRNHMSWYRQAPGKQRELAAIITSDGQTNYPDSVKGRFTISRDNAKNTVYLQMNSLKPEDTAVYYCNTFGRSVAGFYDYWGQGTQVTVSS
notes: also called A1-N64Q
B10: untagged D59E variant of VHH A1 (VHH)
VHH: DVQLVESGGGLVQPGGSLRLSCAASESIFSRNHMSWYRQAPGKQRELAAIITSEGNTNYPDSVKGRFTISRDNAKNTVYLQMNSLKPEDTAVYYCNTFGRSVAGFYDYWGQGTQVTVSS
notes: also called A1-D59E
B11: 131I-labeled untagged A2-E90Q (VHH)
VHH: DVQLVESGGGLVQAGGSLRLSCAADEMKFSNYDLAWYRRAPGKQRELAAIITSGGSTNYPDSVKGRFTISRDNAKNTVYLQMNSLKPEDTAVYYCNALRPWPQFSDYWGQGTQVTVSS
modifications: [131I]SGMIB conjugated to lysine side-chain amine groups
B12: 131I-labeled untagged A2-M28T-E90Q (VHH)
VHH: DVQLVESGGGLVQAGGSLRLSCAADETKFSNYDLAWYRRAPGKQRELAAIITSGGSTNYPDSVKGRFTISRDNAKNTVYLQMNSLKPEDTAVYYCNALRPWPQFSDYWGQGTQVTVSS
modifications: [131I]SGMIB conjugated to lysine side-chain amine groups
B13: 131I-labeled untagged A2-K29R-E90Q (VHH)
VHH: DVQLVESGGGLVQAGGSLRLSCAADEMRFSNYDLAWYRRAPGKQRELAAIITSGGSTNYPDSVKGRFTISRDNAKNTVYLQMNSLKPEDTAVYYCNALRPWPQFSDYWGQGTQVTVSS
modifications: [131I]SGMIB conjugated to lysine side-chain amine groups
B14: 131I-labeled untagged A2-M28A-E90Q (VHH)
VHH: DVQLVESGGGLVQAGGSLRLSCAADEAKFSNYDLAWYRRAPGKQRELAAIITSGGSTNYPDSVKGRFTISRDNAKNTVYLQMNSLKPEDTAVYYCNALRPWPQFSDYWGQGTQVTVSS
modifications: [131I]SGMIB conjugated to lysine side-chain amine groups
B15: 131I-labeled untagged A2-K29Q-E90Q (VHH)
VHH: DVQLVESGGGLVQAGGSLRLSCAADEMQFSNYDLAWYRRAPGKQRELAAIITSGGSTNYPDSVKGRFTISRDNAKNTVYLQMNSLKPEDTAVYYCNALRPWPQFSDYWGQGTQVTVSS
modifications: [131I]SGMIB conjugated to lysine side-chain amine groups
B16: 131I-labeled untagged A1-N64Q (VHH)
VHH: DVQLVESGGGLVQPGGSLRLSCAASESIFSRNHMSWYRQAPGKQRELAAIITSDGQTNYPDSVKGRFTISRDNAKNTVYLQMNSLKPEDTAVYYCNTFGRSVAGFYDYWGQGTQVTVSS
modifications: [131I]SGMIB conjugated to lysine side-chain amine groups
B17: 131I-labeled untagged A1-N64E (VHH)
VHH: DVQLVESGGGLVQPGGSLRLSCAASESIFSRNHMSWYRQAPGKQRELAAIITSDGETNYPDSVKGRFTISRDNAKNTVYLQMNSLKPEDTAVYYCNTFGRSVAGFYDYWGQGTQVTVSS
modifications: [131I]SGMIB conjugated to lysine side-chain amine groups
B18: 131I-labeled untagged A1-D59E (VHH)
VHH: DVQLVESGGGLVQPGGSLRLSCAASESIFSRNHMSWYRQAPGKQRELAAIITSEGNTNYPDSVKGRFTISRDNAKNTVYLQMNSLKPEDTAVYYCNTFGRSVAGFYDYWGQGTQVTVSS
modifications: [131I]SGMIB conjugated to lysine side-chain amine groups
B19: 131I-labeled untagged A1-N64S (VHH)
VHH: DVQLVESGGGLVQPGGSLRLSCAASESIFSRNHMSWYRQAPGKQRELAAIITSDGSTNYPDSVKGRFTISRDNAKNTVYLQMNSLKPEDTAVYYCNTFGRSVAGFYDYWGQGTQVTVSS
modifications: [131I]SGMIB conjugated to lysine side-chain amine groups
B20: 99mTc-labeled His6-tagged VHH A4 (VHH)
VHH: DVQLVESGGGLARAGGSLRLSCAASGRAFSSTYAMGWFRQAPGKEREFVADINWSEGSPMYIDSVKDRFTISRDNARNSLYLQMNSLKSEDTAVYYCAARRFGQGYEYWGQGTQVTVSS
modifications: [99mTc(H2O)3(CO)3] at the His6-tail
notes: also called 99mTc-A4
B21: 99mTc-labeled His6-tagged VHH A5 (VHH)
VHH: DVQLVESGGGLVQAGGSLRLSCGVSGNIFSMNLMGWYRQPPGKEREWVALITKDGSTNYEDSVKGRFTISRDNAKNTVSLQMNSLKPEDTAVYYCNAQDGSGWIRAWGWDWGQGTQVTVSS
modifications: [99mTc(H2O)3(CO)3] at the His6-tail
notes: also called 99mTc-A5

T1 sequence (P15328 25-234 limits assumed): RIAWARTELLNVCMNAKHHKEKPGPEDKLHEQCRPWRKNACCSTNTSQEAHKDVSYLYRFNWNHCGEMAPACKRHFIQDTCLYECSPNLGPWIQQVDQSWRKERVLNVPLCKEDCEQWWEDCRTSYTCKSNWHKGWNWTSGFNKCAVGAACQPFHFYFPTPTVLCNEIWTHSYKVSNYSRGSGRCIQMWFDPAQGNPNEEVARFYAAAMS

One experiment concerns the target T1, human FOLR1 expressed on SKOV-3 ovarian carcinoma cells (human, UniProt P15328 25-234).
T1 construct: Naturally expressed receptor on SKOV-3 cells; also called human FOLR1pos SKOV-3 cancer cells; human FOLR1-expressing cell line SKOV-3
Kind of experiment: cellular retention on SKOV-3 cells: 10 nM 131I-VHH 1 h at 4 C, then up to 24 h at 37 C; membrane-bound plus internalized fraction. Here is the method:
The in vitro cellular retention of the different His₆- and untagged ¹³¹I-labeled VHHs was assessed on the same cancer cells. In this particular case, human FOLR1^pos SKOV-3 cancer cells were incubated with 10 nM ¹³¹I-labelled VHHs for 1h at 4° C., after which the unbound fraction was collected. A 100-fold excess of the corresponding unlabeled VHH to assess non-specific binding. Next, the cells were incubated with fresh medium up to 24 h at 37° C., after which the dissociated fraction was collected. Afterwards, the cells were washed with 0.05 M glycine pH 2.8 to collect the membrane-bound fraction. Finally, cells were solubilized with 1 M NaOH at room temperature to collect the internalized fraction. The sum of the membrane-bound and internalized fractions corresponds to the total cell-associated fraction.
With B1, the “cell-associated fraction of initial bound activity after 24 h” value was approximately 60%.

The target in another experiment is T2, human FOLR1 recombinant protein (extracellular domain of human folate receptor alpha) (human, UniProt P15328 25-233).
T2 construct: Bought recombinant protein (Sino Biological); also called hFOLR1; FR-alpha
T2 sequence (P15328 25-233): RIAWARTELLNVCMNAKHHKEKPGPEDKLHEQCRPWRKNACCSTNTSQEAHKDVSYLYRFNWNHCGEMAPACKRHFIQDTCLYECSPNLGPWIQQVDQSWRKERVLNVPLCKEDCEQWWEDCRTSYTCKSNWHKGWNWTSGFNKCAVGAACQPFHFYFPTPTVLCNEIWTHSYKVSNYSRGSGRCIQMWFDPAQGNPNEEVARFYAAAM
Kind of experiment: SPR (Biacore T200), single cycle kinetics, human FOLR1 immobilized on CM5, untagged VHH as analyte, 1:1 fit. As for the experimental part:
The antigen-binding kinetic parameters of untagged, purified VHH A1 and A2 variants were determined by surface plasmon resonance on immobilized human FOLR1 recombinant protein with a Biacore T200 instrument (GE Healthcare). The human FOLR1 recombinant protein (Sino Biological) was immobilized in 10 mM sodium acetate, pH 5.5 on a CM5 chip (GE Healthcare) via amine coupling chemistry to 250 RU. VHHs were analyzed using single cycle kinetics with a threefold serial dilution in HBS (5 nM-0.062 nM) and an analyte flow rate of 40 µl/min. The association phase took 5× 450 s and the dissociation phase 900 s. Regeneration was done by a single injection of 50 mM glycine-HCl, pH 2.5, 2 M MgCl₂ for 30 s at 30 µl/min, followed by 120 s stabilization. Binding curves were fitted using a ‘1:1 (antigen:analyte)’ binding model in Biacore T200 evaluation software.
For the molecule B2, the Kd is 0.25 nM, the koff came out at 0.0006 s⁻¹ and the association rate constant (kon) turned out to be 2.3e+06 M⁻¹ s⁻¹.
For the molecule B3, the Kd amounted to 0.29 nM, the koff worked out at 0.00053 s⁻¹ and the kon was determined as 1.9e+06 M⁻¹ s⁻¹.
Taken in the same sequence, the figures for B4 were 0.81 nM, 0.0016 s⁻¹ and 2e+06 M⁻¹ s⁻¹.
On the same counts, the results for B5 are 0.27 nM, 0.00048 s⁻¹ and 1.8e+06 M⁻¹ s⁻¹.
B6: the Kd stood at 0.56 nM, the koff turned out to be 0.0013 s⁻¹ and the kon worked out at 2.3e+06 M⁻¹ s⁻¹.
For the molecule B7, the dissociation constant (Kd) is 0.092 nM, the off-rate (koff) amounted to 0.00017 s⁻¹ and the on-rate (kon) is 1.8e+06 M⁻¹ s⁻¹.
Taken in the same sequence, the figures for B8 were 0.057 nM, 0.00014 s⁻¹ and 2.5e+06 M⁻¹ s⁻¹.
On the same counts, the results for B9 are 0.036 nM, 8.2e-05 s⁻¹ and 2.3e+06 M⁻¹ s⁻¹.
As for B10, the Kd stood at 0.083 nM, the dissociation rate constant (koff) came to 0.00019 s⁻¹ and the kon worked out at 2.3e+06 M⁻¹ s⁻¹.

Another experiment deals with T1, human FOLR1 expressed on SKOV-3 ovarian …. Put plainly: saturation binding of 131I-labelled untagged VHH on SKOV-3 cells. Here is the method: In a first part, their in vitro behaviour was assessed by means of investigating their cellular binding and retention over time. The binding potential of the resulting radioconjugates was assessed to confirm that this was not affected by the introduction of ¹³¹I-SGMIB into the amino acid sequence of the different VHHs. To this, human FOLR1^pos SKOV-3 cancer cells were incubated with serial dilutions with concentrations ranging from 0 to 300 nM of the different ¹³¹I-labelled, His₆ tagged VHHs. A 100-fold excess of the corresponding unlabeled VHH was added in parallel to saturate the human FOLR1 receptors expressed on cancer cells, to assess non-specific binding.
A1 and A2 parental untagged VHH’s and derivatives were radiolabeled with theranostic isotope ¹³¹I, as described in example 3, and subjected to saturation binding studies as described in example 6.
Consider B11, for which the concentration for a half-maximal effect (EC50) was 2.9 nM.
Turning to B12, the concentration for a half-maximal effect (EC50) turned out to be 4.8 nM.
On to B13, for which the response was half-maximal at 3.6 nM (EC50).
On the same count and under the same terms, next, B14: 4.1 nM; B1: 2.4 nM.
Same read-out and setting: the result for B15 reads 5.1 nM; that for B16, 2.3 nM; that for B17, 2.5 nM.
On the same count and under the same terms, the result for B18 reads 2.1 nM.
On to B19, for which the midpoint of the response, the EC50, lay at 0.9 nM.

The target is the same in the next experiment. Kind of experiment: saturation binding of 99mTc-labelled His6-tagged VHH on SKOV-3 cells (0-300 nM); non-specific binding by 100-fold unlabelled VHH. As for the experimental part: After quality control (> 95%), human FOLR1^pos SKOV-3 cancer cells were incubated with serial dilutions with concentrations ranging from 0 to 300 nM of the different ^99mTc-labelled VHHs. A 100-fold excess of the corresponding unlabeled VHH was added in parallel to saturate the human FOLR1 receptors expressed on cancer cells, to assess non-specific binding.
Consider B20, for which the EC50 was found to be 3.8 nM.
Same read-out and setting: the result for B21 reads 28.6 nM.
